Experimental data published in publication PMC10284912, “Molecular choreography of primer synthesis by the eukaryotic Pol α-primase” (Nature Communications, 2023).

T1: S. cerevisiae DNA polymerase catalytic subunit Pol1 (S. cerevisiae, UniProt P13382 1-1468)
T1 construct: DNA polymerase alpha catalytic subunit Pol1, S. cerevisiae, aa 1-1468 (Pol1-NTD aa 1-348, Pol1-core aa 349-1259, Pol1-CTD aa 1260-1468); intact complex without truncations; also called DNA polymerase 1; p180
T1 sequence (looked up): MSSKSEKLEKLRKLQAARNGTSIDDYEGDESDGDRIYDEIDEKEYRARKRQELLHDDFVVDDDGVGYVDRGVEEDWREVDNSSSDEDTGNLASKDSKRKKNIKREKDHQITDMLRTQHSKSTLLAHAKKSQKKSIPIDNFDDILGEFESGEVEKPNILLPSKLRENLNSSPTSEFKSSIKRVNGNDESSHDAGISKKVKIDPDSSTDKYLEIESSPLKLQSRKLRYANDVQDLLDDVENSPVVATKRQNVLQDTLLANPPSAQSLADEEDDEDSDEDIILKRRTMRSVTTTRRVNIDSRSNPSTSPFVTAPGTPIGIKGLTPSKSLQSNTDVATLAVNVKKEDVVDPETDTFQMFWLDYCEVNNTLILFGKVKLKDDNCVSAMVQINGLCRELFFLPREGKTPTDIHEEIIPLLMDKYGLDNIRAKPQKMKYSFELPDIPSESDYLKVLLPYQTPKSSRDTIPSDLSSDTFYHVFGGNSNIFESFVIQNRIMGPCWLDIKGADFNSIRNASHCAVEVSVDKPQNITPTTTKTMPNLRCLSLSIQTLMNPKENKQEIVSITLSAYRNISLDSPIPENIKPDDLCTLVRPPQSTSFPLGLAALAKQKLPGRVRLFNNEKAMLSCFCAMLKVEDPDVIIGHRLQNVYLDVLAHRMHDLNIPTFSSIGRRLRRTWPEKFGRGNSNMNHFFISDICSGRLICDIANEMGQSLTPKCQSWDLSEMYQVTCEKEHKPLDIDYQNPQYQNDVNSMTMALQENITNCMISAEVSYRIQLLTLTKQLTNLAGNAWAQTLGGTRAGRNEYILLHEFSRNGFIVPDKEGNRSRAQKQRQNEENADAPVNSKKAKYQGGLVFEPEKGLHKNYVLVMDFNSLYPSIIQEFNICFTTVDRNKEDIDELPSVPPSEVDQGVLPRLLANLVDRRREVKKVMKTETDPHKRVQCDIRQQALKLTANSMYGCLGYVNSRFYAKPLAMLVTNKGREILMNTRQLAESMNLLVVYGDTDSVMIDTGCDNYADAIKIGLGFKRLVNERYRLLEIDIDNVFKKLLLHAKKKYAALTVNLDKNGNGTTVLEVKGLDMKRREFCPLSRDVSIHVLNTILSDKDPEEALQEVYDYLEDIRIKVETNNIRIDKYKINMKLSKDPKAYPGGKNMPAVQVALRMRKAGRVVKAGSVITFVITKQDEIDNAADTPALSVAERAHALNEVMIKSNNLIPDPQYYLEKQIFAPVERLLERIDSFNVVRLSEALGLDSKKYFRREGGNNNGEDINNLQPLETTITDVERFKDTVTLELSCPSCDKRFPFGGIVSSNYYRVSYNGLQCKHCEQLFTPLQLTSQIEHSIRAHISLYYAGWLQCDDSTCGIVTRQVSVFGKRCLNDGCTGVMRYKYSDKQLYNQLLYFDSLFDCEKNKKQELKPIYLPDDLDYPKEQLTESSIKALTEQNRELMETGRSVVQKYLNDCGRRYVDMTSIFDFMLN

B1: S. cerevisiae regulatory subunit primase 2 (Pri2) (natural protein, UniProt P20457 1-528, looked up)
chain: MFRQSKRRIASRKNFSSYDDIVKSELDVGNTNAANQIILSSSSSEEEKKLYARLYESKLSFYDLPPQGEITLEQFEIWAIDRLKILLEIESCLSRNKSIKEIETIIKPQFQKLLPFNTESLEDRKKDYYSHFILRLCFCRSKELREKFVRAETFLFKIRFNMLTSTDQTKFVQSLDLPLLQFISNEEKAELSHQLYQTVSASLQFQLNLNEEHQRKQYFQQEKFIKLPFENVIELVGNRLVFLKDGYAYLPQFQQLNLLSNEFASKLNQELIKTYQYLPRLNEDDRLLPILNHLSSGYTIADFNQQKANQFSENVDDEINAQSVWSEEISSNYPLCIKNLMEGLKKNHHLRYYGRQQLSLFLKGIGLSADEALKFWSEAFTRNGNMTMEKFNKEYRYSFRHNYGLEGNRINYKPWDCHTILSKPRPGRGDYHGCPFRDWSHERLSAELRSMKLTQAQIISVLDSCQKGEYTIACTKVFEMTHNSASADLEIGEQTHIAHPNLYFERSRQLQKKQQKLEKEKLFNNGNH
notes: DNA primase large (regulatory) subunit Pri2, S. cerevisiae (Pri2-NTD, 20-residue linker, Pri2-CTD with a 4Fe-4S cluster); intact complex without truncations; also called p58; PriL
B2: S. cerevisiae polymerase accessory subunit Pol12 (natural protein, UniProt P38121 1-705, looked up)
chain: MSGSIDVITHFGPDADKPEIITALENLTKLHALSVEDLYIKWEQFSNQRRQTHTDLTSKNIDEFKQFLQLQMEKRANQISSSSKVNTSTKKPVIKKSLNSSPLFGLSIPKTPTLKKRKLHGPFSLSDSKQTYNVGSEAETNEKGNSSLKLEFTPGMAEDAVGDSAPLSHAKSSDAKTPGSSTFQTPTTNTPTTSRQNVPAGEILDSLNPENIEISSGNPNVGLLSTEEPSYNQVKVEPFYDAKKYKFRTMRQNLQEASDVLDDQIESFTKIIQNHYKLSPNDFADPTIQSQSEIYAVGRIVPDSPTYDKFLNPESLSLETSRMGGVGRRVRLDLSQVNELSFFLGQIVAFKGKNANGDYFTVNSILPLPYPNSPVSTSQELQEFQANLEGSSLKVIVTCGPYFANDNFSLELLQEFIDSINNEVKPHVLIMFGPFIDITHPLIASGKLPNFPQFKTQPKTLDELFLKLFTPILKTISPHIQTVLIPSTKDAISNHAAYPQASLIRKALQLPKRNFKCMANPSSFQINEIYFGCSNVDTFKDLKEVIKGGTTSSRYRLDRVSEHILQQRRYYPIFPGSIRTRIKPKDVSTKKETNDMESKEEKVYEHISGADLDVSYLGLTEFVGGFSPDIMIIPSELQHFARVVQNVVVINPGRFIRATGNRGSYAQITVQCPDLEDGKLTLVEGEEPVYLHNVWKRARVDLIAS
notes: intact complex without truncations; also called p70; B-subunit
B3: S. cerevisiae catalytic primase 1 (Pri1) (natural protein, UniProt P10363 1-409, looked up)
chain: MTNSVKTNGPSSSDMEYYYKSLYPFKHIFNWLNHSPKPSRDMINREFAMAFRSGAYKRYNSFNSVQDFKAQIEKANPDRFEIGAIYNKPPRERDTLLKSELKALEKELVFDIDMDDYDAFRTCCSGAQVCSKCWKFISLAMKITNTALREDFGYKDFIWVFSGRRGAHCWVSDKRARALTDVQRRNVLDYVNVIRDRNTDKRLALKRPYHPHLARSLEQLKPFFVSIMLEEQNPWEDDQHAIQTLLPALYDKQLIDSLKKYWLDNPRRSSKEKWNDIDQIATSLFKGPKQDSHIIKLRECKEDLVLMTLYPKLDVEVTKQTIHLLKAPFCIHPATGNVCVPIDESFAPEKAPKLIDLQTEMEKNNDVSLTALQPFINQFQAYVSSLLKNELGSVKREREDDDEPASLDF
notes: DNA primase small (catalytic) subunit Pri1, S. cerevisiae; intact complex without truncations; also called p49; PriS

What was measured:
[1] = target: T1, S. cerevisiae DNA polymerase catalytic …; test: cryo-EM structure; purified yeast Pol α-primase alone (apo state, conformers I and II, 3.7 and 3.8 Å); ~1 mg/ml; 50 mM HEPES pH 7.5, 50 mM KGlu, 200 mM KAcetate, 1 mM DTT, 4 mM MgCl2; conditions: both partners purified
[2] = target: B1; test: as above; conditions: both partners purified

| binding result [1] | binding result [2] | Binder |
| --- | --- | --- |
| binds |  | B1 |
| binds |  | B2 |
| binds | binds | B3 |
